Measurements: publication PMC8790569

Tests used:
[1] = system: T1, AnLexA (Anabaena sp. strain PCC 7120), ORF:0695c96d; test: EMSA; conditions: 20 mM Tris-Cl pH 7.5, 1 mM EDTA, 20 ul, RT 30 min; 10% native PAGE in 0.5x TBE
T1 sequence: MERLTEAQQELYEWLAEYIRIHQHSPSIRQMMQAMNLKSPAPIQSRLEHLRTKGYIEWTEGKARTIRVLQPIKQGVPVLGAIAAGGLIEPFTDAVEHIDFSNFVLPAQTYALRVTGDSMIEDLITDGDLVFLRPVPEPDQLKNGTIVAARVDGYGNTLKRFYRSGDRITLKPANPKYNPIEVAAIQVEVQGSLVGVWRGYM

[2] = system: T2, AzuR (Anabaena sp. strain PCC 7120), ORF:06435f25; test: EMSA; conditions: 20 mM Tris-Cl pH 7.5, 1 mM EDTA, 20 ul, RT 30 min; 10% native PAGE in 0.5x TBE
T2 sequence: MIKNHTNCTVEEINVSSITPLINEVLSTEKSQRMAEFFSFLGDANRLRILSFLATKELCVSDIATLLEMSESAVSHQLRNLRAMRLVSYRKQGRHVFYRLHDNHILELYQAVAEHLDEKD

[3] = target: AzuR (Alr0831) (Anabaena sp. strain PCC 7120); test: SEC; Superdex 75, 20 mM Tris, 100 mM NaCl, pH 7.5, 25 °C, 0.5 ml/min; calibrated with gel filtration markers
[4] = target: AzuR (Alr0831) (Anabaena sp. strain PCC 7120); test: cross-linking; purified AzuR (5 ug) with 10 mM glutaraldehyde, room temperature, 10-15 min, 10 mM Tris pH 7.5; cracking buffer without DTT; 15% SDS-PAGE, Coomassie

stoichiometry N [3] | stoichiometry N [4] | Substance | binding [1] | binding [2]
 |  | AAACGTATTATATAACCTAATTGTTACATTTTATTAAGCAATACTTGAACATCTGTTCAGGTATTGTAGTGTAATCACAAGTGAAAACGGAGGAAATAAT (double strand) [PnmtA (100 bp upstream of nmtA ORF)] | no binding | binds
2 | 2 | AzuR (Alr0831) (natural protein) |  | 
